Assay: FACS of transfected HeLa
Details: glycan lost; control: wild type MOG

| Protein | expression_or_secretion |
| --- | --- |
| myelin oligodendrocyte glycoprotein (MOG): N31A (protein) parent chain: MASLSRPSLPSCLCSFLLLLLLQVSSSYAGQFRVIGPRHPIRALVGDEVELPCRISPGKNATGMEVGWYRPPFSRVVHLYRNGKDQDGDQAPEYRGRTELLKDAIGEGKVTLRIRNVRFSDEGGFTCFFRDHSYQEEAAMELKVEDPFYWVSPGVLVLLAVLPVLLLQITVGLIFLCLQYRLRGKLRAEIENLHRTFDPHFLRVPCWKITLFVIVPVLGPLVALIICYNWLHRRLAGQFLEELRNPF | no change |
| myelin oligodendrocyte glycoprotein (MOG): N31D (protein) parent chain: MASLSRPSLPSCLCSFLLLLLLQVSSSYAGQFRVIGPRHPIRALVGDEVELPCRISPGKNATGMEVGWYRPPFSRVVHLYRNGKDQDGDQAPEYRGRTELLKDAIGEGKVTLRIRNVRFSDEGGFTCFFRDHSYQEEAAMELKVEDPFYWVSPGVLVLLAVLPVLLLQITVGLIFLCLQYRLRGKLRAEIENLHRTFDPHFLRVPCWKITLFVIVPVLGPLVALIICYNWLHRRLAGQFLEELRNPF | no change |
